Source: patent US20190004036
Where two headings read alike, the source gives them in different places.

Assays:
[1] = system: T1, 5FAMcollagenPPT protease substrate
T1 sequence: AGGPLGPPGPGGK

[2] = target: T2, 5FAMcollagenPPT protease substrate
T2 chain: AGGPLGPPGPGGK

| Molecule | cleavage of substrate (FRET assay, Example 3, 0.3125-10 µg/mL enzyme, 50 µM substrate) [1] | Km, with 4.14 mM calcium (FRET cleavage assay) [1] | Km, without calcium (FRET cleavage assay) [1] | Vmax, with 4.14 mM calcium (FRET cleavage assay) [1] | Vmax, without calcium (FRET cleavage assay) [1] | Km (FRET cleavage assay, Example 3) [2] | Km, without calcium (FRET cleavage assay) [2] | Vmax (FRET cleavage assay, Example 3) [2] | Vmax, without calcium (FRET cleavage assay) [2] | other results |
| --- | --- | --- | --- | --- | --- | --- | --- | --- | --- | --- |
| chymotrypsin | the mammalian proteases trypsin, chymotrypsin, and elastase do not cleave the protease substrate | – | – | – | – | – | – | – | – | – |
| trypsin | the mammalian proteases trypsin, chymotrypsin, and elastase do not cleave the protease substrate | – | – | – | – | – | – | – | – | – |
| collagenase class I | – | 32.9 µM | 38.1 µM | 1010 RFU/min/µg | 1700 RFU/min/µg | – | – | – | – | Km (FRET cleavage assay, Example 3) [1]: 28.2 µM; Vmax (FRET cleavage assay, Example 3) [1]: 909 RFU/min/µg |
| Neutral Protease | – | 45.1 µM | 74.1 µM | 29.3 RFU/min/µg | 20 RFU/min/µg | – | – | – | – | – |
| thermolysin (protein) ITGTSTVGVGRGVLGDQKNINTTYSTYYYLQDNTRGNGIFTYDAKYRTTLPGSLWADADNQFFASYDAPAVDAHYYAGVTYDYYKNVHNRLSYDGNNAAIRSSVHYSQGYNNAFWNGSQMVYGDGDGQTFIPLSGGIDVVAHELTHAVTDYTAGLIYQNESGAINEAISDIFGTLVEFYANKNPDWEIGEDVYTPGISGDSLRSMSDPAKYGDPDHYSKRYTGTQDNGGVHINSGIINKAAYLISQGGTHYGVSVVGIGRDKLGKIFYRALTQYLTPTSNFSQLRAAAVQSATDLYGSTSQEVASVKQAFDAVGVK | – | – | – | – | – | 34.6 µM | 30.4 µM | 24.6 RFU/min/µg | 23.7 RFU/min/µg | Km, with 4.14 mM calcium (FRET cleavage assay) [2]: 24.8 µM; Vmax, with 4.14 mM calcium (FRET cleavage assay) [2]: 25.5 RFU/min/µg |
| collagenase class II (protein) VQNESKRYTVSYLKTLNYYDLVDLLVKTEIENLPDLFQYSSDAKEFYGNKTRMSFIMDEIGRRAPQYTEIDHKGIPTLVEVVRAGFYLGFHNKELNEINKRSFKERVIPSILAIQKNPNFKLGTEVQDKIVSATGLLAGNETAPPEVVNNFTPILQDCIKNIDRYALDDLKSKALFNVLAAPTYDITEYLRATKEKPENTPWYGKIDGFINELKKLALYGKINDNNSWIIDNGIYHIAPLGKLHSNNKIGIETLTEVMKVYPYLSMQHLQSADQIKRHYDSKDAEGNKIPLDKFKKEGKEKYCPKTYTFDDGKVIIKAGARVEEEKVKRLYWASKEVNSQFFRVYGIDKPLEEGNPDDILTMVIYNSPEEYKLNSVLYGYDTNNGGMYIEPEGTFFTYEREAQESTYTLEELFRHEYTHYLQGRYAVPGQWGRTKLYDNDRLTWYEEGGAELFAGSTRTSGILPRKSIVSNIHNTTRNNRYKLSDTVHSKYGASFEFYNYACMFMDYMYNKDMGILNKLNDLAKNNDVDGYDNYIRDLSSNYALNDKYQDHMQERIDNYENLTVPFVADDYLVRHAYKNPNEIYSEISEVAKLKDAKSEVKKSQYFSTFTLRGSYTGGASKGKLEDQKAMNKFIDDSLKKLDTYSWSGYKTLTAYFTNYKVDSSNRVTYDVVFHGYLPNEGDSKNSLPYGKINGTYKGTEKEKIKFSSEGSFDPDGKIVSYEWDFGDGNKSNEENPEHSYDKVGTYTVKLKVTDDKGESSVSTTTAEIKDLSENKLPVIYMHVPKSGALNQKVVFYGKGTYDPDGSIAGYQWDFGDGSDFSSEQNPSHVYTKKGEYTVTLRVMDSSGQMSEKTMKIKITDPVYPIGTEKEPNNSKETASGPIVPGIPVSGTIENTSDQDYFYFDVITPGEVKIDINKLGYGGATWVVYDENNNAVSYATDDGQNLSGKFKADKPGRYYIHLYMFNGSYMPYRINIEGSVGR | – | – | – | – | – | 24.5 µM | 24.1 µM | 5000 RFU/min/µg | 3240 RFU/min/µg | – |
